Measurements: paper PMC5332557

Molecular target: soluble C-terminally truncated HAP2 ectodomain (HAP2e), residues 23-592, Chlamydomonas reinhardtii (Chlamydomonas reinhardtii) (UniProt A4GRC6)
Assay: SEC-MALS

soluble C-terminally truncated HAP2 ectodomain (HAP2e), residues 23-592, Chlamydomonas reinhardtii (from UniProt A4GRC6 23-592) (domain or fragment)
stoichiometry N: 6
